Measurements: publication PMC5778602 (Nucleic Acids Research, 2017)
Blank lines part the entries; values can stand above or below the binder they belong to.

B2: CstF-77ΔN (domain or fragment, human, UniProt Q12996 241-717, looked up)
chain: NTPQEAQQVDMWKKYIQWEKSNPLRTEDQTLITKRVMFAYEQCLLVLGHHPDIWYEAAQYLEQSSKLLAEKGDMNNAKLFSDEAANIYERAISTLLKKNMLLYFAYADYEESRMKYEKVHSIYNRLLAIEDIDPTLVYIQYMKFARRAEGIKSGRMIFKKAREDTRTRHHVYVTAALMEYYCSKDKSVAFKIFELGLKKYGDIPEYVLAYIDYLSHLNEDNNTRVLFERVLTSGSLPPEKSGEIWARFLAFESNIGDLASILKVEKRRFTAFKEEYEGKETALLVDRYKFMDLYPCSASELKALGYKDVSRAKLAAIIPDPVVAPSIVPVLKDEVDRKPEYPKPDTQQMIPFQPRHLAPPGLHPVPGGVFPVPPAAVVLMKLLPPPICFQGPFVQVDELMEIFRRCKIPNTVEEAVRIITGGAPELAVEGNGPVESNAVLTKAVKRPNEDSDEDEEKGAVVPPVHDIYRARQQKRIR
B3: full length GST-CstF-50 fusion protein (natural protein, human, UniProt Q05048 1-431, looked up)
chain: MYRTKVGLKDRQQLYKLIISQLLYDGYISIANGLINEIKPQSVCAPSEQLLHLIKLGMENDDTAVQYAIGRSDTVAPGTGIDLEFDADVQTMSPEASEYETCYVTSHKGPCRVATYSRDGQLIATGSADASIKILDTERMLAKSAMPIEVMMNETAQQNMENHPVIRTLYDHVDEVTCLAFHPTEQILASGSRDYTLKLFDYSKPSAKRAFKYIQEAEMLRSISFHPSGDFILVGTQHPTLRLYDINTFQCFVSCNPQDQHTDAICSVNYNSSANMYVTGSKDGCIKLWDGVSNRCITTFEKAHDGAEVCSAIFSKNSKYILSSGKDSVAKLWEISTGRTLVRYTGAGLSGRQVHRTQAVFNHTEDYVLLPDERTISLCCWDSRTAERRNLLSLGHNNIVRCIVHSPTNPGFMTCSDDFRARFWYRRSTTD

Key:
WD40 domain of CstF-50 = molecular target: T1, WD40 domain of CstF-50 (human, UniProt Q05048 80-431); test: ITC
T1 sequence: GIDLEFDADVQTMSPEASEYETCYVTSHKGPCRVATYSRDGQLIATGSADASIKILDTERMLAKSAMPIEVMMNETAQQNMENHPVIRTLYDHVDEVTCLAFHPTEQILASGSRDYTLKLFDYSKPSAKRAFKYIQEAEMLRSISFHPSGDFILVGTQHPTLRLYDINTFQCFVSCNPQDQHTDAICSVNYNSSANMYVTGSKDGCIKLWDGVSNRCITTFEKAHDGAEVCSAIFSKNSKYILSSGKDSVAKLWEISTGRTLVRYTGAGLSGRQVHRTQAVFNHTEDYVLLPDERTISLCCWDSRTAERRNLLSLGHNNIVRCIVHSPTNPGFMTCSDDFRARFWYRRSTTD

[1] = molecular target: B3; test: pull-down
SEC-MALS = molecular target: the molecule itself; test: SEC-MALS
CstF-77ΔN [2] = molecular target: B2; test: pull-down
CstF-77ΔN [3] = molecular target: B2; test: SEC

B1: CstF-77 (residues 241–610) (domain or fragment, human, UniProt Q12996 241-610, looked up)
chain: NTPQEAQQVDMWKKYIQWEKSNPLRTEDQTLITKRVMFAYEQCLLVLGHHPDIWYEAAQYLEQSSKLLAEKGDMNNAKLFSDEAANIYERAISTLLKKNMLLYFAYADYEESRMKYEKVHSIYNRLLAIEDIDPTLVYIQYMKFARRAEGIKSGRMIFKKAREDTRTRHHVYVTAALMEYYCSKDKSVAFKIFELGLKKYGDIPEYVLAYIDYLSHLNEDNNTRVLFERVLTSGSLPPEKSGEIWARFLAFESNIGDLASILKVEKRRFTAFKEEYEGKETALLVDRYKFMDLYPCSASELKALGYKDVSRAKLAAIIPDPVVAPSIVPVLKDEVDRKPEYPKPDTQQMIPFQPRHLAPPGLHPVPGGVF
binding result [1]: binds

Binder: B2
stoichiometry N (SEC-MALS): 2

Binder: B3
binding result (CstF-77ΔN [2]): binds

B4: CstF-50 (full length, affinity tag removed) (natural protein, human, UniProt Q05048 1-431, looked up)
chain: MYRTKVGLKDRQQLYKLIISQLLYDGYISIANGLINEIKPQSVCAPSEQLLHLIKLGMENDDTAVQYAIGRSDTVAPGTGIDLEFDADVQTMSPEASEYETCYVTSHKGPCRVATYSRDGQLIATGSADASIKILDTERMLAKSAMPIEVMMNETAQQNMENHPVIRTLYDHVDEVTCLAFHPTEQILASGSRDYTLKLFDYSKPSAKRAFKYIQEAEMLRSISFHPSGDFILVGTQHPTLRLYDINTFQCFVSCNPQDQHTDAICSVNYNSSANMYVTGSKDGCIKLWDGVSNRCITTFEKAHDGAEVCSAIFSKNSKYILSSGKDSVAKLWEISTGRTLVRYTGAGLSGRQVHRTQAVFNHTEDYVLLPDERTISLCCWDSRTAERRNLLSLGHNNIVRCIVHSPTNPGFMTCSDDFRARFWYRRSTTD
binding result (CstF-77ΔN [3]): binds

The remaining lines, values ahead:

Kd (WD40 domain of CstF-50): ~200 nM
stoichiometry N (WD40 domain of CstF-50): 1
Binder: YPKPDTQQMIPFQPRHLAPP (peptide, UniProt Q12996 581-600, looked up) [CstF-77 peptide (residues 581–600)]

binding result [1]: binds
B5: CstF-77 (residues 241–600) (domain or fragment, human, UniProt Q12996 241-600, looked up)
chain: NTPQEAQQVDMWKKYIQWEKSNPLRTEDQTLITKRVMFAYEQCLLVLGHHPDIWYEAAQYLEQSSKLLAEKGDMNNAKLFSDEAANIYERAISTLLKKNMLLYFAYADYEESRMKYEKVHSIYNRLLAIEDIDPTLVYIQYMKFARRAEGIKSGRMIFKKAREDTRTRHHVYVTAALMEYYCSKDKSVAFKIFELGLKKYGDIPEYVLAYIDYLSHLNEDNNTRVLFERVLTSGSLPPEKSGEIWARFLAFESNIGDLASILKVEKRRFTAFKEEYEGKETALLVDRYKFMDLYPCSASELKALGYKDVSRAKLAAIIPDPVVAPSIVPVLKDEVDRKPEYPKPDTQQMIPFQPRHLAPP
